Experimental data reported in patent US6566047B1, “Method for identifying neurite-growth promoting agents” (The Regents of the University of Colorado, priority 1998, dated 2003).

B1: BDNF: brain-derived neurotrophic factor (protein, UniProt P23560 19-247, looked up)
Neurotrophic factor BDNF …: APMKEANIRGQGGLAYPGVRTHGTLESVNGPKAGSRGLTSLADTFEHVIEELLDEDQKVRPNEENNKDADLYTSRVMLSSQVPLEPPLLFLLEEYKNYLDAANMSMRVRRHSDPARRGELSVCDSISEWVTAADKKTAVDMSGGTVTVLEKVPVSKGQLKQYFYETKCNPMGYTKEGCRGIDKRHWNSQCRTTQSYVRALTMDSKKRIGWRFIRIDTSCVCTLTIKRGR
B2: SemaIV: recombinant semaphorin IV, repellent and putative tumor suppressor (protein, UniProt Q13275 19-785, looked up)
Semaphorin-3F: SFPTQDHLPATPRVRLSFKELKATGTAHFFNFLLNTTDYRILLKDEDHDRMYVGSKDYVLSLDLHDINREPLIIHWAASPQRIEECVLSGKDVNGECGNFVRLIQPWNRTHLYVCGTGAYNPMCTYVNRGRRAQATPWTQTQAVRGRGSRATDGALRPMPTAPRQDYIFYLEPERLESGKGKCPYDPKLDTASALINEELYAGVYIDFMGTDAAIFRTLGKQTAMRTDQYNSRWLNDPSFIHAELIPDSAERNDDKLYFFFRERSAEAPQSPAVYARIGRICLNDDGGHCCLVNKWSTFLKARLVCSVPGEDGIETHFDELQDVFVQQTQDVRNPVIYAVFTSSGSVFRGSAVCVYSMADIRMVFNGPFAHKEGPNYQWMPFSGKMPYPRPGTCPGGTFTPSMKSTKDYPDEVINFMRSHPLMYQAVYPLQRRPLVVRTGAPYRLTTIAVDQVDAADGRYEVLFLGTDRGTVQKVIVLPKDDQELEELMLEEVEVFKDPAPVKTMTISSKRQQLYVASAVGVTHLSLHRCQAYGAACADCCLARDPYCAWDGQACSRYTASSKRRSRRQDVRHGNPIRQCRGFNSNANKNAVESVQYGVAGSAAFLECQPRSPQATVKWLFQRDPGDRRREIRAEDRFLRTEQGLLLRALQLSDRGLYSCTATENNFKHVVTRVQLHVLGRDAVHAALFPPLSMSAPPPPGAGPPTPPYQELAQLLAQPEVGLIHQYCQGYWRHVPPSPREAPGAPRSPEPQDQKKPRNRRHHPPDT

Assays:
growth cone PLA2 = assay: PLA2 assay in growth cone particles (GCPs); format: biochemical, rat; conditions: GCPs
Experimental: Growth Cone Particle (GCP) Isolation. GCPs were prepared as described by Pfenninger et al. (1983) and modified by Lohse et al., Dev. Brain Res., 96:38-96 (1996). Briefly, 18-day fetal brains were homogenized in approximately 8 volumes of 0.32 M sucrose containing 1 mM MgCl2, 2 mM TES buffer, pH 7.3, and 3 μM aprotinin. A low-speed supernatant (1,660 g×15 min) was loaded onto a discontinuous sucrose density gradient With steps of 0.83 M and 2.66 M sucrose containing MgCl2 and TES. The gradients were spun to equilibrium at 242,000 g for 40 min in a vertical rotor (Vti50, Beckman). The GCP fraction at the 0.32/0.83 M sucrose interface was collected and used for the experiments described below.
All assays were run in triplicate.

cPLA2 = assay: PLA2 activity (14C-AA release) in MAT-Lu cells; format: biochemical, rat; conditions: dose-dependent
Experimental: MAT-Lu cells were plated at a density of 0.5×10^6 cells per flask (T-75) and grown as detailed above to approximately 25% confluency. On the day before the experiments, the serum level in the medium was dropped to 1%. Cells were fed with fresh 1% serum-medium 4 hrs prior to harvest. For harvesting, cells were rinsed with Ca^++,Mg^++-free HBSS, covered with 2 ml cold Ca^++-free modified Krebs buffer (220 mM sucrose, 50 mM NaCl, 5 mM KCl, 22 mM HEPES, 10 mM glucose. 1.2 mM NaH2PO4 and 1.2 mM MgCl2, pH 7.3), and placed on ice. Cells were scraped off, pelleted for 5 min at 200 rpm and re-suspended in a minimal volume of Krebs buffer. Aliquots were used to determine protein concentration (Biorad Assay) and phopholipase activity. To measure PLA2 activity 10-12 μg of cell protein was incubated with or without thrombin for 10 min on ice, ^14C-AA-labeled phospholipid substrate (7 μM. 40-60 mCi/mmol) was added, and the mixture was transferred to 37° for 20 min. The reaction was stopped by adding cold cliloroform/methanol (1:2 v/v). Lipid extraction followed by thin-layer chromatography (Negre-Aminou et al., J Neurochem 67:2599-2608 (1996)) isolated the reaction product (identified by co-migration with AA standard), which was then scraped off the plates and analyzed in a scintillation spectrometer (Beckman). In some experiments, especially those involving ^14C-AA-phosphatidylinositol as substrate, the diacylglycerol-containing band (identified by co-migration of standard) also was scraped and counted in order to measure phospholipase C (PLC) activity.

MAT-Lu cells = assay: Pseudopod morphometry (pseudopod length assay), MAT-Lu cells; format: cell-based, rat; conditions: typically 15 min exposure
Experimental: Pseudopod Morphometry. To study the effects of various agents on pseudopods on a short-term basis, we measured pseudopod lengths. Cells plated in 35-mm diameter dishes at low density (1×10^4 per dish) were incubated overnight, tie medium was changed, and the experiments were run four hours later. First, cultures were shifted to serum-free medium, which was replaced one hour later by serum-free medium with or without the various agents (thrombin, AA or HETEs). Care was taken to avoid heat and light inactivation of the eicosanoids. Culture dishes were placed on a Zeiss inverted microscope equipped with a heated stage and viewed with a 16×phase contrast objective lens. Randomly selected fields of the cultures, containing generally about 20 cells each, were recorded, digitized and stored in the computer at the onset of the experiment and at different times thereafter.
In some cases, individual cells were monitored over different periods of time immediately after introduction of the reagent, either by mixing it into the medium or by applying it locally to one end of the cell. […] Cell morphology was recorded, and the captured images were analyzed with a Power Macintosh computer using NIH Image. Cell process length was measured from the center of the nucleus to the end of the process. […]

Molecule | activation of growth cone cPLA2/PLA2 (growth cone PLA2) | net activity (pmol/min/mg protein) (growth cone PLA2; Table 3c, substrate PI, BDNF 100, IGF-1 0.75, insulin 1, thrombin 200 nM, control 159 ± 6.2) | increase of cPLA2-PE activity (cPLA2) | effect of agent alone on pseudopod length (MAT-Lu cells)
B1 | did not significantly stimulate PLA2 activity | 164 ± 10.6 | – | –
B2 | dose-dependent activation of growth cone cPLA2 | – | several fold | causes pseudopod retraction in MAT-Lu cells
